In patent US20200087373A1 (UNIVERSITY OF COPENHAGEN, published 2020):
Ends that are not written are not given here. * marks the point of attachment. C16 diacid = O=C(O)CCCCCCCCCCCCCCC(=O)*

B1: AT182 [hGIP(5-30)NH2[F22K]-C16diacid/22] (peptide)
peptide: TFISDYSIAMDKIHQQDK(C16 diacid)VNWLLAQK-NH2
modifications: N-terminus assumed
SMILES: CC[C@H](C)[C@H](NC(=O)[C@H](CO)NC(=O)[C@H](Cc1ccc(O)cc1)NC(=O)[C@H](CC(=O)O)NC(=O)[C@H](CO)NC(=O)[C@@H](NC(=O)[C@H](Cc1ccccc1)NC(=O)[C@@H](N)[C@@H](C)O)[C@@H](C)CC)C(=O)N[C@@H](C)C(=O)N[C@@H](CCSC)C(=O)N[C@@H](CC(=O)O)C(=O)N[C@@H](CCCCN)C(=O)N[C@H](C(=O)N[C@@H](Cc1c[nH]cn1)C(=O)N[C@@H](CCC(N)=O)C(=O)N[C@@H](CCC(N)=O)C(=O)N[C@@H](CC(=O)O)C(=O)N[C@@H](CCCCNC(=O)CCCCCCCCCCCCCCC(=O)O)C(=O)N[C@H](C(=O)N[C@@H](CC(N)=O)C(=O)N[C@@H](Cc1c[nH]c2ccccc12)C(=O)N[C@@H](CC(C)C)C(=O)N[C@@H](CC(C)C)C(=O)N[C@@H](C)C(=O)N[C@@H](CCC(N)=O)C(=O)N[C@@H](CCCCN)C(N)=O)C(C)C)[C@@H](C)CC
B2: AT185 [hGIP(5-30)NH2[W25K]-C16diacid/25] (peptide)
peptide: TFISDYSIAMDKIHQQDFVNK(C16 diacid)LLAQK-NH2
modifications: N-terminus assumed
SMILES: CC[C@H](C)[C@H](NC(=O)[C@H](CO)NC(=O)[C@H](Cc1ccc(O)cc1)NC(=O)[C@H](CC(=O)O)NC(=O)[C@H](CO)NC(=O)[C@@H](NC(=O)[C@H](Cc1ccccc1)NC(=O)[C@@H](N)[C@@H](C)O)[C@@H](C)CC)C(=O)N[C@@H](C)C(=O)N[C@@H](CCSC)C(=O)N[C@@H](CC(=O)O)C(=O)N[C@@H](CCCCN)C(=O)N[C@H](C(=O)N[C@@H](Cc1c[nH]cn1)C(=O)N[C@@H](CCC(N)=O)C(=O)N[C@@H](CCC(N)=O)C(=O)N[C@@H](CC(=O)O)C(=O)N[C@@H](Cc1ccccc1)C(=O)N[C@H](C(=O)N[C@@H](CC(N)=O)C(=O)N[C@@H](CCCCNC(=O)CCCCCCCCCCCCCCC(=O)O)C(=O)N[C@@H](CC(C)C)C(=O)N[C@@H](CC(C)C)C(=O)N[C@@H](C)C(=O)N[C@@H](CCC(N)=O)C(=O)N[C@@H](CCCCN)C(N)=O)C(C)C)[C@@H](C)CC
B3: AT183 [hGIP(5-30)NH2[V23K]-C16diacid/23] (peptide)
peptide: TFISDYSIAMDKIHQQDFK(C16 diacid)NWLLAQK-NH2
modifications: N-terminus assumed
SMILES: CC[C@H](C)[C@H](NC(=O)[C@H](CO)NC(=O)[C@H](Cc1ccc(O)cc1)NC(=O)[C@H](CC(=O)O)NC(=O)[C@H](CO)NC(=O)[C@@H](NC(=O)[C@H](Cc1ccccc1)NC(=O)[C@@H](N)[C@@H](C)O)[C@@H](C)CC)C(=O)N[C@@H](C)C(=O)N[C@@H](CCSC)C(=O)N[C@@H](CC(=O)O)C(=O)N[C@@H](CCCCN)C(=O)N[C@H](C(=O)N[C@@H](Cc1c[nH]cn1)C(=O)N[C@@H](CCC(N)=O)C(=O)N[C@@H](CCC(N)=O)C(=O)N[C@@H](CC(=O)O)C(=O)N[C@@H](Cc1ccccc1)C(=O)N[C@@H](CCCCNC(=O)CCCCCCCCCCCCCCC(=O)O)C(=O)N[C@@H](CC(N)=O)C(=O)N[C@@H](Cc1c[nH]c2ccccc12)C(=O)N[C@@H](CC(C)C)C(=O)N[C@@H](CC(C)C)C(=O)N[C@@H](C)C(=O)N[C@@H](CCC(N)=O)C(=O)N[C@@H](CCCCN)C(N)=O)[C@@H](C)CC
B4: AT184 [hGIP(5-30)NH2[N24K]-C16diacid/24] (peptide)
peptide: TFISDYSIAMDKIHQQDFVK(C16 diacid)WLLAQK-NH2
modifications: N-terminus assumed
SMILES: CC[C@H](C)[C@H](NC(=O)[C@H](CO)NC(=O)[C@H](Cc1ccc(O)cc1)NC(=O)[C@H](CC(=O)O)NC(=O)[C@H](CO)NC(=O)[C@@H](NC(=O)[C@H](Cc1ccccc1)NC(=O)[C@@H](N)[C@@H](C)O)[C@@H](C)CC)C(=O)N[C@@H](C)C(=O)N[C@@H](CCSC)C(=O)N[C@@H](CC(=O)O)C(=O)N[C@@H](CCCCN)C(=O)N[C@H](C(=O)N[C@@H](Cc1c[nH]cn1)C(=O)N[C@@H](CCC(N)=O)C(=O)N[C@@H](CCC(N)=O)C(=O)N[C@@H](CC(=O)O)C(=O)N[C@@H](Cc1ccccc1)C(=O)N[C@H](C(=O)N[C@@H](CCCCNC(=O)CCCCCCCCCCCCCCC(=O)O)C(=O)N[C@@H](Cc1c[nH]c2ccccc12)C(=O)N[C@@H](CC(C)C)C(=O)N[C@@H](CC(C)C)C(=O)N[C@@H](C)C(=O)N[C@@H](CCC(N)=O)C(=O)N[C@@H](CCCCN)C(N)=O)C(C)C)[C@@H](C)CC

Columns and labels:
human GIP receptor [1] = molecular target: T1, human GIP receptor (human, UniProt P48546 22-466); assay: IC50 with 2% HSA over IC50 with 0.1% casein, 125I-hGIP competition, COS-7/hGIPR
T1 construct: whole, on cells; also called hGIPR
T1 sequence (looked up): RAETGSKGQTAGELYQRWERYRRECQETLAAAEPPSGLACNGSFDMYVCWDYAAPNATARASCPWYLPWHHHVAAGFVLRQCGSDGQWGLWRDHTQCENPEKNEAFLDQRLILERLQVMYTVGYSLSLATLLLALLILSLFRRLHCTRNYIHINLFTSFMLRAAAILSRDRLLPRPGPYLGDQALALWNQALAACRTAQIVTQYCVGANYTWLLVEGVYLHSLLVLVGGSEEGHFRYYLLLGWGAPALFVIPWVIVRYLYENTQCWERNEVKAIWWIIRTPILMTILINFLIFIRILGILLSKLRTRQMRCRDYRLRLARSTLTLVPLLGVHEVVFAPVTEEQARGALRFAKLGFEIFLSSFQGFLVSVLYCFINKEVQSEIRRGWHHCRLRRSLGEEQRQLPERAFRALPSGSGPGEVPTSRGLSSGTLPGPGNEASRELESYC
Protocol: (§1) After incubation, the cells were washed twice in ice-cold binding buffer (+/−2% HSA) and lysed using 200 mM NaOH with 1% SDS for 30 min. Nonspecific binding was determined as the binding of radioactive ligand to untransfected cells.

human GIP receptor [2] = molecular target: T1, human GIP receptor; assay: 125I-hGIP competition binding, COS-7/hGIPR, 2% HSA;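 further: nonspecific binding defined as radioligand binding to untransfected cells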
Protocol: as §1

human GIP receptor [3] = molecular target: T1, human GIP receptor; assay: 125I-hGIP competition binding, COS-7 cells expressing hGIPR;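 further: nonspecific binding taken as radioligand bound by untransfected cells, binding buffer with or without 2% HSA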
Protocol: as §1

human GIP receptor [4] = molecular target: T1, human GIP receptor; assay: 125I-hGIP competition binding, COS-7/hGIPR, 0.1% casein;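 further: nonspecific binding defined as radioligand binding measured on untransfected cells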
Protocol: as §1

human GIP receptor [5] = molecular target: T1, human GIP receptor; assay: cell-based or functional assay

| Binder | Fold change HSA (2%)/Casein (0.1%) (human GIP receptor [1]) | IC50 (human GIP receptor [2]) | logIC50 (human GIP receptor [2]) | IC50 (human GIP receptor [3]) | log IC50 (human GIP receptor [3]) | IC50 (human GIP receptor [4]) | logIC50 (human GIP receptor [4]) | cAMP agonism (human GIP receptor [5]) | cAMP agonism, EC50 (log) (human GIP receptor [5]) | cAMP agonism, Emax (human GIP receptor [5]) | cAMP antagonism (human GIP receptor [5]) | cAMP antagonism, log (human GIP receptor [5]) |
| --- | --- | --- | --- | --- | --- | --- | --- | --- | --- | --- | --- | --- |
| B1 | 3 fold | 141 nM | -6.9 log M | 962 nM | -6 log M | 47.9 nM | -7.3 log M | 634 nM | -6 log M | 13 | 634 nM | -6.2 log M |
| B2 | 4.7 fold | 1150 nM | -5.9 log M | 87 nM | -7.1 log M | 246 nM | -6.6 log M | 44 nM | -7 log M | 18 | 44 nM | -7.4 log M |
| B3 | 1.8 fold | 1700 nM | -5.8 log M | 7130 nM | -5.1 log M | 955 nM | -6 log M |  |  | 0 | 1770 nM | -5.8 log M |
| B4 | 1.6 fold | 11200 nM | -5 log M | 247 nM | -6.6 log M | 7080 nM | -5.2 log M |  |  | 0 | 91 nM | -7 log M |
